Measurements: article PMC6441080, “Coordination of capsule assembly and cell wall biosynthesis in Staphylococcus aureus” (Nature Communications, 2019)

Tested on: CC(=O)N[C@H]1[C@@H](OP(=O)(O)OP(=O)(O)OC[C@H]2O[C@@H](n3ccc(=O)[nH]c3=O)[C@H](O)[C@@H]2O)O[C@H](C)[C@H](O)[C@@H]1O
Assay: purified protein
Settings: Mg2+

CapM (Staphylococcus aureus subsp. aureus USA300)
Km: 2,309 ± 311.8 µM
